Measured values published in publication PMC10689503, “CaMKK2 and CHK1 phosphorylate human STN1 in response to replication stress to protect stalled forks from aberrant resection”.

Legend:
Conditions in all cases: protein: recombinant;recombinant;recombinant; copies: 1;1;1; label: 5'-Cy3 on Oligo 2; 25 bp duplex; 5' overhang 35 nt on strand 1
[1] = molecular target: CTC1;STN1 WT;TEN1 (human;human;human, UniProt Q2NKJ3;Q9H668;Q86WV5 1-1217;1-368;1-123, ||); assay: EMSA; EMSA: 60 nM DNA, 35 mM Tris-HCl pH 7.5, 1 mM DTT, 100 ng/uL BSA, 50 mM KCl, 37 C, 5 min; 0.8% agarose, 1x TBE, 4 C
Chain of CTC1;STN1 WT;TEN1 (Q2NKJ3 whole entry, chain 1 of 3): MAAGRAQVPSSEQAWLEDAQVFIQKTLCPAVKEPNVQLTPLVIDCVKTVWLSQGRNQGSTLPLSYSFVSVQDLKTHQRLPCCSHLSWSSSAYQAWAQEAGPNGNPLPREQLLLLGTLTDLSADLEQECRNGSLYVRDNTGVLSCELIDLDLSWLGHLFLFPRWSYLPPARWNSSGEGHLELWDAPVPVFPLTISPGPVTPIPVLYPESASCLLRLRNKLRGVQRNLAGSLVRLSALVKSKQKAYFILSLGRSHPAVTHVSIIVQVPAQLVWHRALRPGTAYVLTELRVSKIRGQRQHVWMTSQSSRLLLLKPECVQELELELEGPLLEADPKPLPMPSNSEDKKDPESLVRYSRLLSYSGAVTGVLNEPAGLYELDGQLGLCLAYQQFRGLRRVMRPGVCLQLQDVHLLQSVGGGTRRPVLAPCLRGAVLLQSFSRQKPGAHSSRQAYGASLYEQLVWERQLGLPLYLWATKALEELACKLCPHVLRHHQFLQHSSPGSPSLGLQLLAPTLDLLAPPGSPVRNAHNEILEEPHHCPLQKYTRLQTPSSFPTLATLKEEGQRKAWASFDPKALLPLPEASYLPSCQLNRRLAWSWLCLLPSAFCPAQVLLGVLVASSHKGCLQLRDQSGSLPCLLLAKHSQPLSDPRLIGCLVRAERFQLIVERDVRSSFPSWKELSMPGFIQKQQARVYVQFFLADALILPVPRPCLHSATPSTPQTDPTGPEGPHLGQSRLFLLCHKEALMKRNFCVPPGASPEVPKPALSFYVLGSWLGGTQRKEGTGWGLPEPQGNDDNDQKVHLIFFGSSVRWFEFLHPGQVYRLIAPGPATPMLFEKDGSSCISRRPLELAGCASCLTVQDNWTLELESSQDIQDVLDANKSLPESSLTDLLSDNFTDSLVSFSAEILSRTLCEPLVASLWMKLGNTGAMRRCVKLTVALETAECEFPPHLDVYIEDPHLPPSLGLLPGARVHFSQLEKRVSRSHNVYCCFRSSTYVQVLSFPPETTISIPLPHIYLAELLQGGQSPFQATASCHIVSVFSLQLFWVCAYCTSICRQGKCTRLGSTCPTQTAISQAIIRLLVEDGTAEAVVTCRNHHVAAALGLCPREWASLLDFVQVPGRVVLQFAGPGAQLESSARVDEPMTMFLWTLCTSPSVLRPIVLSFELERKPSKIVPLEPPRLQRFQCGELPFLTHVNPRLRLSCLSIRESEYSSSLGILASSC
Chain of CTC1;STN1 WT;TEN1 (Q9H668 whole entry, chain 2 of 3): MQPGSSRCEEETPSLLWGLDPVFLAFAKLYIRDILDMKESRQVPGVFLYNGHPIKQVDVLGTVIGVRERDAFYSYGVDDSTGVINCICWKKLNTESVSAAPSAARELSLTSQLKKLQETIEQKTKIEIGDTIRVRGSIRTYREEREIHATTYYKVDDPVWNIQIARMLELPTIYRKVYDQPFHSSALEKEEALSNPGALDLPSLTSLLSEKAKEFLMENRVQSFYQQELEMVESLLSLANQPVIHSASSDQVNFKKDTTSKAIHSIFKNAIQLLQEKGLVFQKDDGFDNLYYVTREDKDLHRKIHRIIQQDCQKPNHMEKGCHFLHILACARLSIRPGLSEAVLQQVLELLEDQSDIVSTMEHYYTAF
Chain of CTC1;STN1 WT;TEN1 (Q86WV5 whole entry, chain 3 of 3): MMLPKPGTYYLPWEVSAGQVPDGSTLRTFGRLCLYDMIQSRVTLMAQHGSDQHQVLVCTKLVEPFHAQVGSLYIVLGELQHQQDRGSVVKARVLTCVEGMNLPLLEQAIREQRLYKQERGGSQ

[2] = molecular target: CTC1;STN1 S96A;TEN1 (human;human;human, UniProt Q2NKJ3;Q9H668;Q86WV5 1-1217;1-368;1-123, |S96A|); assay: EMSA; affinity comparable to WT-CST; EMSA: 60 nM DNA, 35 mM Tris-HCl pH 7.5, 1 mM DTT, 100 ng/uL BSA, 50 mM KCl, 37 C, 5 min; 0.8% agarose, 1x TBE, 4 C
Chain of CTC1;STN1 S96A;TEN1 (Q2NKJ3 whole entry, chain 1 of 3): as the sequence (Q2NKJ3 whole entry, chain 1 of 3) above
Chain of CTC1;STN1 S96A;TEN1 (Q9H668 whole entry S96A, chain 2 of 3): as the sequence (Q9H668 whole entry, chain 2 of 3) above, with S96A counted along it
Chain of CTC1;STN1 S96A;TEN1 (Q86WV5 whole entry, chain 3 of 3): as the sequence (Q86WV5 whole entry, chain 3 of 3) above

[3] = molecular target: CTC1;STN1 S96D;TEN1 (human;human;human, UniProt Q2NKJ3;Q9H668;Q86WV5 1-1217;1-368;1-123, |S96D|); assay: as above
Chain of CTC1;STN1 S96D;TEN1 (Q2NKJ3 whole entry, chain 1 of 3): as the sequence (Q2NKJ3 whole entry, chain 1 of 3) above
Chain of CTC1;STN1 S96D;TEN1 (Q9H668 whole entry S96D, chain 2 of 3): as the sequence (Q9H668 whole entry, chain 2 of 3) above, with S96D counted along it
Chain of CTC1;STN1 S96D;TEN1 (Q86WV5 whole entry, chain 3 of 3): as the sequence (Q86WV5 whole entry, chain 3 of 3) above

Measured: binding result

B1: Cy3-labeled 5' overhang DNA (Oligo 1 + Oligo 2) (mixed)
DNA 1: ACGCTGCCGAATTCTACCAGTGCCTTGCTAGGACATCTTTGCCCACCTGCAGGTTCACCC
DNA 2: GGGTGAACCTGCAGGTGGGCAAAGA
modifications: Oligo 1: phosphorothioate bonds at both ends (after nt 1-5 and as printed around the last 4 nt)
binds: [1] | [2] | [3]
